Test results from patent EP4711453A1, “PHENYLALANINE LYASE MUTANT, AND CONJUGATE THEREOF OR PHARMACEUTICALLY ACCEPTABLE SALT THEREOF” (Peg-Bio Biopharm Co., Ltd. (Chongqing), priority 2023, dated 2024).

Legend:
[1] = Specific enzyme activity of phenylalanine lyase (trans-cinnamic acid formation, absorbance at 290 nm); assay type: biochemical; details: polyethylene glycol conjugates; method as for the proteins
Experimental: Phenylalanine lyase specifically catalyzes the conversion of phenylalanine into trans-cinnamic acid with the release of ammonia. […] Enzyme activity is defined as the amount of enzyme required to produce 1 µmol of trans-cinnamic acid per minute in buffer (100 mmol/L Tris-HCl, pH 8.5) at room temperature (25°C) as one unit of enzyme activity.
The specific enzyme activity of phenylalanine lyase and its mutants (i.e., PAL, PAL2, PAL3, and PAL4 proteins) prepared in Example 1 was evaluated by taking an appropriate amount of test sample and diluting it to 0.4 mg/ml using assay buffer (100 mmol/L Tris-HCl, pH 8.0). 2.9 ml of substrate solution (100 mmol/L Tris-HCl, 45 mmol/L Phe, pH 8.0) was placed in a cuvette, followed by addition of 0.1 ml of diluted test solution and immediate mixing. The changes in absorbance per minute were recorded at a wavelength of 290 nm, and the specific enzyme activity was calculated according to the formula. Enzyme activity (U/mg) = (AS−AO)VN × 10^6 /εLTV1 [formula]
Where AS and AO represent the absorbance of trans-cinnamic acid at the […] of the reaction, respectively; V is the total volume (L) of the reaction system; L is the optical path length of the cuvette (cm); ε is the molar extinction coefficient of trans-cinnamic acid (10238.1 L/(mol·cm)); T is the reaction time (min); N is the dilution factor of the test sample; V1 is the volume of test sample (ml).
The enzyme activity retention rate was calculated by comparing the specific enzyme activity of phenylalanine lyase mutants with the specific enzyme activity of the phenylalanine lyase. Table 2: Specific enzyme activity of phenylalanine lyase mutants
The specific enzyme activity of the polyethylene glycol conjugates of phenylalanine lyase and its mutants prepared in Step 1 of Example 2 was determined according to the method described in Step 1 of this example. The enzyme activity retention rate was calculated by comparing the specific enzyme activity of each conjugate with its specific enzyme activity prior to PEG modification (e.g., the enzyme activity retention rate of PL5-1 = specific enzyme activity of PL5-1 / specific enzyme activity of PAL protein). Table 3: Specific enzyme activity of PEGylated phenylalanine lyase mutants

anti-PEG-IgG = system: anti-PEG-IgG; design: species or system rats; details: rat, in vivo; for anti-PEG-IgG, Positive rate: sc, 0.75 mg/kg
Experimental: (§1) Polyethylene glycol conjugates of phenylalanine lyase or its mutant with different structures and modifier molecular weights, namely PL20, PL24, and PL54, were prepared according to the method described in Example 2. The phenylalanine lyase in PL20 has the amino acid sequence as set forth in SEQ ID NO: 1, and the polyethylene glycol has a molecular weight of 20K. The phenylalanine lyase in PL24 has the amino acid sequence as set forth in SEQ ID NO: 6, and the polyethylene glycol has a molecular weight of 2K. The phenylalanine lyase in PL54 has the amino acid sequence as set forth in SEQ ID NO: 6, and the polyethylene glycol has a molecular weight of 5K.
(§2) To evaluate the immunogenicity of PL20, PL24, and PL54 in animals, normal rats were selected and divided into 3 groups, with 6 rats per group (3 males and 3 females). Subcutaneous administration was performed at a dose of 0.75 mg/kg with PL54 (average degree of modification 13.6, 1.27 U/mg), PL24 (average degree of modification 13.3, 0.96 U/mg), and PL20 (average degree of modification 7.6, 1.14 U/mg) for the three groups, respectively. Administration was repeated 7 times, once weekly. Blood samples were collected 7 days after each administration. Serum anti-PEG-IgG and anti-PAL4 protein antibodies were detected by ELISA (refer to Example 5 for details). In the table, "1-7" indicated 7 days after the first administration, and "7-7" indicated 7 days after the seventh administration. x represented the average OD value of antibody detection by ELISA, and the positive rate represented the ratio of the number of antibody-positive animals to the total number of animals in the group. Table 6: Antibody titers in rats after multiple administrations of polyethylene glycol conjugates with different molecular weights

anti-PAL-IgG = assay: Immunogenicity of conjugates with different PEG molecular weights in rats: anti-PAL-IgG (ELISA); assay type: in vivo; details: 0.75 mg/kg s.c. once weekly
Experimental: as §1, §2

[2] = 1-7 (7 days after the first administration)
[3] = 1-7, antibody-positive animals / animals in the group
[4] = 7-7 (7 days after the seventh administration)
[5] = 7-7, antibody-positive animals / animals in the group

| Molecule | Specific enzyme activity [1] | anti-PEG-IgG antibody titer, comparison between groups (anti-PEG-IgG) | anti-PEG-IgG, Positive rate (anti-PEG-IgG) | anti-PAL-IgG, x (average OD value of antibody detection by ELISA) (anti-PAL-IgG; [2]) | anti-PAL-IgG, Positive rate (anti-PAL-IgG; [3]) | anti-PAL-IgG, x (average OD value of antibody detection by ELISA) (anti-PAL-IgG; [4]) | anti-PAL-IgG, Positive rate (anti-PAL-IgG; [5]) |
| --- | --- | --- | --- | --- | --- | --- | --- |
| PL20: polyethylene glycol conjugate of phenylalanine lyase SEQ ID NO: 1, polyethylene glycol molecular weight 20K, average degree of modification 7.6 [reference compound] | 1.14 U/mg | higher than that in the PL24 and PL54 groups | Positive rate: 6/6 | x=0.118 | Positive rate: 1/6 | x=0.102 | Positive rate: 1/6 |
| PL24: polyethylene glycol conjugate of phenylalanine lyase mutant SEQ ID NO: 6, polyethylene glycol molecular weight 2K, average degree of modification 13.3 (conjugate, PEG 2K conjugate, ~13.3 PEG per molecule) MKTLSQAQSKTSSQQFSFTGNSSANVIIGNQKLTINDVARVARNGTLVSLTNNTDILQGIQASCDYINNAVKSGEPIYGVTSGFGGMANVAISREQASELQTNLVWFLKTGAGNKLPLADVRAAMLLRANSHMRGASGIRLELIKRMEIFLNAGVTPYVYEFGSIGASGDLVPLSYITGSLIGLDPSFKVDFNGKEMDAPTALRQLNLSPLTLLPKEGLAMMNGTSVMTGIAANCVYDTKILTAIAMGVHALDIQALNGTNQSFHPFIHNSKPHPGQLWAADQMISLLANSQLVRDELDGKHDYRDHELIQDRYSLRCLPQYLGPIVDGISQIAKQIEIEINSVTDNPLIDVDNQASYHGGNFLGQYVGMGMDHLRYYIGLLAKHLDVQIALLASPEFSNGLPPSLLGNRERKVNMGLKGLQICGNSIMPLLTFYGNSIADRFPTHAEQFNQNINSQGYTSATLARKSVDIFQNYVAIALMFGVQAVDLRTYKKTGHYDARASLSPATERLYSAVRHVVGQKPTSDRPYIWNDNEQGLDEHIAKISADIAAGGVIVQAVQDILPSLH | 0.96 U/mg |  | Positive rate: 6/6 | x=0.130 | Positive rate: 4/6 | x=0.891 | Positive rate: 6/6 |
